Legend:
[1] = target: T1, Fusion protein of extracellular domain of human TIGIT and mouse IgG2a Fc fragment (human TIGIT ECD-mFc) (human); assay: ELISA, human TIGIT ECD-mFc
T1 construct: The entry includes the signal peptide (limits not recoverable) and the mouse IgG2a Fc
T1 chain: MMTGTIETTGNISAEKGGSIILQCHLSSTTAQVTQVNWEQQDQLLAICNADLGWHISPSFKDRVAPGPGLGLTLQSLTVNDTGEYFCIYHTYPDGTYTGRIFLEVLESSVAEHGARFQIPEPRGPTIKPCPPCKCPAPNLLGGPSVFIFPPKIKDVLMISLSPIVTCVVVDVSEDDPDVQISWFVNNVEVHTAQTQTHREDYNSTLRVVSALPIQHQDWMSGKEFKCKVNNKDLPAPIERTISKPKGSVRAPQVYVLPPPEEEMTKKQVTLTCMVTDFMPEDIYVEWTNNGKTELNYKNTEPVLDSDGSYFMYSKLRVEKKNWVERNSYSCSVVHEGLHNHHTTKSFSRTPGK

[2] = target: T2, Full-length human TIGIT on CHO-K1 cells (CHO-K1 human TIGIT) (human, UniProt Q495A1 22-244); assay: FACS; CHO-K1 human TIGIT high expression strain
T2 construct: NCBI XP_024309156.1; the entry includes the signal peptide (limits not recoverable); The strain (high, medium, low) is named under assay; also called high expression strain 1D2; medium expression strain 2D10
T2 sequence: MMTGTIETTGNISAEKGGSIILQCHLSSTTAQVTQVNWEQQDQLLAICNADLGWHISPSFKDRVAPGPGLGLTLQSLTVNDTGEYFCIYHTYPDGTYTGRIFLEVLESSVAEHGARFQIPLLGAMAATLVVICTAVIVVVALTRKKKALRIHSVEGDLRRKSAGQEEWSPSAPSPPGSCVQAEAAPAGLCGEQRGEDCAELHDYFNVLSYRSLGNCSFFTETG
Summary of the method: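 Binding curves from flow cytometry on CHO-K1 cells bearing full-length human or cynomolgus monkey TIGIT yielded the EC50. A 3-fold, 12-point antibody series starting at 80 nM before the 1:1 mix with cells in 1% BSA-PBS was incubated at 4° C for 60 min.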

[3] = target: T3, Fusion protein of extracellular domain of human TIGIT and human IgG1 Fc fragment (human TIGIT ECD-hFc) (human); assay: blocking of TIGIT ECD-hFc binding to CHO-K1 CD155 cells
T3 construct: The entry includes the signal peptide (limits not recoverable) and the human IgG1 Fc
T3 sequence (chain, as listed by the source limits assumed): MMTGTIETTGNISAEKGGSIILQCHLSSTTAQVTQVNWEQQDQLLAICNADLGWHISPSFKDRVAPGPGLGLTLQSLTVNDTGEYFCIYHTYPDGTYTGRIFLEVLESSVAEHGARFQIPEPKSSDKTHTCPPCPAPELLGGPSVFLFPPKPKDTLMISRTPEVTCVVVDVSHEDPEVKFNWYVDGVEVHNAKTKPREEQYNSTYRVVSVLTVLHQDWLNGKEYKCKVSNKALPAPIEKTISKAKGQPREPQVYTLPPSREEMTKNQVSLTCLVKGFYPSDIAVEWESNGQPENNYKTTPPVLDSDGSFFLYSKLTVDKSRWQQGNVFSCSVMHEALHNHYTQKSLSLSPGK
Summary of the method: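 Cell-based ELISA on CHO-K1 CD155 cells, cultured overnight, fixed and blocked with 5% skim milk-PBS. Antibodies were premixed for 0.5 h with human TIGIT ECD-hFc (working concentration 30 ng/mL), then added and held at 37° C for 1.5-2 h. Bound TIGIT was detected with HRP secondary antibody (1:5000, 37° C, 1 h) and TMB, read as OD450 nm. IC50 came from the inhibition curves.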

[4] = target: T4, Fusion protein of extracellular domain of cynomolgus monkey TIGIT and mouse IgG2a Fc fragment (cynomolgus … (cynomolgus monkey)); assay: ELISA, cynomolgus monkey TIGIT ECD-mFc
T4 construct: The entry includes the signal peptide (limits not recoverable) and the mouse IgG2a Fc
T4 sequence (chain, as listed by the source limits assumed): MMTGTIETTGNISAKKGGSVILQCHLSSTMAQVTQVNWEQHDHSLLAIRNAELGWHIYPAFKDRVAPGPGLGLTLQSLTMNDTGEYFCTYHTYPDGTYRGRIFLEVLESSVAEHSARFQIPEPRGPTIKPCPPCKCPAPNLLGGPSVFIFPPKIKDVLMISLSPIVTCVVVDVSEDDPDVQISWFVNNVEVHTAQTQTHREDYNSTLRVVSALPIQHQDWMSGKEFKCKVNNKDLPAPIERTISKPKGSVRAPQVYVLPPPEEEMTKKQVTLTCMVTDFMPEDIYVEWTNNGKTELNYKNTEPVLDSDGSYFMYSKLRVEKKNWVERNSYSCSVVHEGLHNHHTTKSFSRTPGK

[5] = target: T2, Full-length human TIGIT on CHO-K1 cells …; assay: cell binding, CHO-K1 human TIGIT high expression strain
Summary of the method: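 Binding was measured by flow cytometry after a 60-minute, 4° C incubation of the antibodies with 2×10⁵ CHO-K1 cells displaying full-length human or cynomolgus monkey TIGIT. Antibody titration: 12 points, threefold serial dilution from 80 nM, in 1% BSA-PBS.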

[6] = target: T5, TIGIT on human PBMCs stimulated by SEA (human, UniProt Q495A1 22-244); assay: FACS; binding to SEA-stimulated human PBMC
T5 construct: whole, on cells
T5 sequence (looked up): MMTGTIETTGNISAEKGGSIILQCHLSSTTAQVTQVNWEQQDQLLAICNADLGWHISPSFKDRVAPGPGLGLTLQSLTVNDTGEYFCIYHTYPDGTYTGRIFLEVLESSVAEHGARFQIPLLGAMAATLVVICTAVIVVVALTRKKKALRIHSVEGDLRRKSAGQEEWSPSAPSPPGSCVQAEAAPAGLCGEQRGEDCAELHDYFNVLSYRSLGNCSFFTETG
Method: The fresh human PBMCs (AllCells, PB004-C) were adjusted to a density of 5×10⁵/mL, added with SEA (Toxin Technology, Inc., CAT: AT101) to 100 ng/ml, and cultured at 37° C. with 5% CO₂ for 3 days. The cells were collected 3 days later, washed once with PBS (Hyclone, CAT #SH30256), added with Fc Block (BD, 564220) and then incubated at 4° C. for 10 minutes. After washing twice with PBS, the PBMCs were resuspended to 2×10⁵/50 μL with 1% BSA-PBS. The humanized antibodies were diluted to 80 nM with 1% BSA-PBS (diluted by 3-fold serial dilution for 12 concentration points). The 50 μL cells were then mixed with 50 μL diluted antibodies, and then incubated at 4° C. for 60 minutes. […] After washing twice with PBS, the cell samples were resuspended with 1% BSA-PBS, 100 μL/well and then analyzed by flow cytometry (BD, Canto II).

[7] = target: T1, Fusion protein of extracellular domain …; assay: FACS; blocking of TIGIT ECD-mFc binding to CHO-K1 CD155 cells
[8] = target: T2, Full-length human TIGIT on CHO-K1 cells …; assay: FACS; blocking of Bio-CD155-His binding to CHO-K1 human TIGIT cells
Summary of the method: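 Bound ligand was measured by flow cytometry on a BD Canto II, using CHO-K1 cells expressing human TIGIT at 2×10⁵/40 μL in 1% BSA-PBS. Equal volumes of antibody, as a 12-point 3-fold dilution series starting at 210 nM, and biotinylated CD155-His, diluted to 3 μg/mL, were added to the cells and held at 4° C for 60 min. APC-streptavidin (1:1700) was used for detection at 4° C for 40 min. IC50 values were obtained from the inhibition curves.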

Binder	EC50 [1]	EC50 [2]	IC50 [3]	EC50 [4]	EC50 [5]	EC50 [6]	IC50 [7]	IC50 [8]
TIGIT-002-H4L3 (antibody, V domains shown, Humanized anti-TIGIT antibody) VH: EVQLQESGPGLVKPSETLSLTCAVSGYSITSDSWNWIRQPPGKKLEYIGYISYSGNTYYNPSLKSRVTISRDTSKNQFSLKLSSVTAADTAVYYCARLDFSNYGGAVDYWGQGTTVTVSS VL: DIVMTQSPDSLAVSLGERATINCKASQNVRTAVAWYQQKPGQSPKLMIYSASYRYTGVPDRFSGSGSGTDFTLTISSLQAEDVAVYYCQQYYTTPWTFGGGTKVEIK	37 pM	297 pM	354 pM	42.7 pM	24.9 pM	43.6 pM	492 pM	137 pM
TIGIT-005-H2L1d (antibody, V domains shown, Humanized anti-TIGIT antibody with NG-site mutation in VL) VH: EVQLVQSGAEVKKPGASVKVSCKASGYAFTNYLIEWVRQAPGQRLEWMGVINPGSGGTNYKEKFKGRVTITADKSSSTAYMELSSLRSEDTAVYYCARGEYFFFDYWGQGTTVTVSS VL: DIVMTQSPDSLAVSLGERATINCKASQHVSNAVAWYQHKPGQSPKLLIYSASYRYTGVPDRFSGSGSGTDFTLTISSLQAEDVAVYYCQQHYNTPHTFGGGTKVEIK	31.1 pM	321 pM	376 pM	39.5 pM	43.9 pM	60.2 pM	467 pM	150 pM
TIGIT-006-H5L3 (antibody, V domains shown, Humanized anti-TIGIT antibody) VH: EVQLQESGPGLVKPSETLSLTCAVSGYSMTSDYWNWIRQPPGKKLEYIGYISYSGRTYYNPSLKSRVTISRDTSKNQFSLKLSSVTAADTAVYYCARGDYSNYGGAMYDWGQGTTVTVSS VL: DIVMTQSPDSLAVSLGERATINCRASQGVSTTIAWYQQKPGQSPKLLIYSASYRYTGVPRFSGSGSGTDFTLTISSLQAEDVAVYYCQQYYSSPFTFGGGTKVEIK	31.9 pM	443 pM	587 pM	40.6 pM	22 pM	91.6 pM	458 pM	171 pM
TIGIT-070-H1L1 (antibody, V domains shown, Humanized anti-TIGIT antibody) VH: EVQLVQSGAEVKKPGASVKVSCKASGYTFTNYYMHWVRQAPGQRLEWMGRIDPDSGGSKYNEKFKSRVTITVDKSASTAYMELSSLRSEDTAVYYCAREGHYGFYSDYWGQGTTVTVSS VL: DIQMTQSPSSLSASVGDRVTITCRVSENIYSYLAWYQQKPGKSPKLLIYNAKTLAEGVPSRFSGSGSGTDFTLTISSLQPEDFATYYCQHHYGNPLTFGPGTKVDIK	28.4 pM	494 pM	502 pM	34.7 pM	26 pM	121 pM	456 pM	212 pM

From US20240343803A1 (SHANDONG SIMCERE BIOPHARMACEUTICAL, published 2024)
